Test results published in the supplement of paper PMC9170038.

System: K4 kissing-loop RNA reporter
Assay: apparent KD of K4 kissing-loop reporter; higher = weaker reporter binding
Details: Eterna round: R107
Experimental: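 RNA-MaP round R107: designed RNA switches with theophylline, tryptophan, arginine or FMN aptamers are transcribed on-chip within common flanks. They are titrated with a labelled K4 kissing-loop RNA reporter in RNA-MaP buffer (100 mM Tris pH 7.5, 80 mM KCl, 4 mM MgCl2), without ligand or with the indicated ligand. Median apparent KD per design.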

[1] = input ligand: theophylline 20 uM
[2] = input ligand: tryptophan 2.4 mM
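Further: bound reporter read as fluorescence of individual clusters on recovered sequencing chips by microscopy, with normalized cluster intensities fitted with a binding model.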

Row | Sequence | apparent KD of K4 kissing-loop reporter (input ligand: FMN 200 uM) [nM] | apparent KD of K4 kissing-loop reporter (input ligand: arginine 13.2 mM) [nM] | apparent KD of K4 kissing-loop reporter (input ligand: none) [nM] | apparent KD of K4 kissing-loop reporter [1] [nM] | apparent KD of K4 kissing-loop reporter [2] [nM]
1 | UUAGUCUAGAGAAGGAGCGAGUGAUGUUUGCUAAGAUCUAUGAUAUCAUAGAUCAAAUUUACUCAGGUAGGUCGCUCUAGACAUU [AK4 Exc Arginine B] | 294 | 53.1 | 182 | 165 | 137
2 | CUGCCGUGCCAUGGGCCAGUGAUGUUGGAACGAGGACCGGUACGGCCGCCACUCGCUUAGCGUCAAAGGCGUCCCGAAUAGAAAG [theeternabot_exclusion_KL_Trp_A_14] | 374 | 230 | 340 | 317 | 374
3 | AAAUAUUCGAGUGAUGUUCGAUAAAUUUCAGAGGAUAUGCUUAAAAGCAGAAGGCUGUAUUUCUAUUUGUUAUGAAAUUUUAUAA [JR_ExcFMNA_Sub003] | 103 | 113 | 87.3 | 109 | 73.3
4 | CCGCUACCCUCAGGAUAUUAAGUAUUAGUGAUGUUAGUAAACCGAUGGCGAAAGCCAUCGGUAUGUUGAGAAGGGAGGGUAGCGG [whbob_SS_FMNB__2th198] | 356 | 946 | 1170 | 847 | 923
5 | GAUGAACUAUUCGAUACCAGACUACAUGAGUGAUGUUCAUGUGUGUCAAUGUCUAUGUCAGUCCCUUGGCAGCGAAUAGUUUAUC [KL-XTheo-B27] | 146 | 108 | 125 | 141 | 125
6 | GUACGCUCUCGAGUGAUGUUCGAUAAUCGCGAGGAUAUCGCUUUUGCGAGAAGGCGCGGAAUGAGGAAACUCGUUCUGAGUGUAC [FMN A 24] | 603 | 390 | 1060 | 673 | 841
7 | CGGCGGAGUGAUGUUCCACCUACUGCGGAUACCAGCUUUGCCAAAGGCCCUUGGCAGCCGCACGGCUCAGUGAUGUUGGGUCGCG [Same State Theophylline A G11] | 225 | 179 | 244 | 223 | 199
8 | AGUGGACGUGUCUGGAGUGAUGUUCUGGAUACCAGACACGAAAGUGUCCCUUGGCAGCCGGAGUGAUGUUCCGGCGUUCACUAAA [Omei KL Theo A Exc B v5] | 462 | 239 | 402 | 396 | 307
9 | CCUAUCUCAUACGAUACCAGUCUAUUAAAACGAGUGAUGUUCGAAUAUUUGCCAUAUAAUGACCCUUGGCAGCGUAUGGGAUAGG [Ex Theophylline B K4 9] | 221 | 229 | 244 | 230 | 190
10 | AUGUCGUUAUAGUGAGUGAUGUUCACUGUGCGAGGACCGGUACGGCCGCCACUCGAGAGUGGUGGACACUGAGUCACUCUGACAC [Tryp A Ex t2] | 124 | 123 | 130 | 111 | 283
11 | AGUGCACUGUCAGGAUAUAUACAGUGAUGUUGUGUAUGUCAGCAAGUCAAAGACUUGCUAUUCUGUGUAGAAGGGACUGUGUACA [Omei KL FMN B Exc A v1] | 607 | 203 | 230 | 207 | 221
12 | GGUAGCAUGGCGGCCGCCACUCUUCAUUAGUGAUGUUAAUGCCGAGUGCGCUAACUCCAACUGGAGAGGACCGGGCCAUGCUACC | 182 | 122 | 288 | 440 | 76
13 | AUAUGCUUAGCGGCCGCCACUCCAAUUGGCCGAAAGGCCUGAUACCGAGUGAUGUUCGGUUGGAGGAGGACCGGGCUAGGCGUAU [#2 Exclusion - Tryptophan B Attempt #1 (HarryS)] | 168 | 139 | 169 | 149 | 141
14 | AUAGGCAUAGCCCGAGUGAUGUUCGACGAUACCAGCCUCGAUAGAGGCCCUUGGCAGCGUAAAUGAUCAUGAAGCCAAGGAAUUA [whbob_Ex_Theo_A_th70] | 360 | 335 | 408 | 394 | 277
15 | UUUCUACCGGGAAGGAGCGUGAAUGAUAAUGGAUAUAGUGAUGUUAUAUAUACGAACGAAUCGCAGGUAGGUCGCCCGGAUGACU [SSArgB.T] | 586 | 503 | 724 | 550 | 486
16 | AUGUCUAAUACGGCCGCCACUCGAGCAGUGAUGUUGCUCAGUAAUGGUCAUCGUCGUACAUGCCCGAGGACCGGGUAUUGAUUUG [Remain] | 147 | 122 | 140 | 145 | 175
